Publication PMC4068969, “SacPox from the thermoacidophilic crenarchaeon Sulfolobus acidocaldarius is a proficient lactonase” (BMC Research Notes, 2014)
Like-named read-outs stand apart in the source and are kept apart here.

Key:
SacPox [1] = target: T1, SacPox (Sulfolobus acidocaldarius, UniProt Q4J6Z8); type: biochemical; details: 2.5 mM Bicine pH 8.3, 150 mM NaCl, 0.2 mM CoCl2, 0.5% DMSO, 25°C; cobalt cofactor
T1 construct: gene pte; recombinant in E. coli BL21(DE3)-pGro7/GroEL with CoCl2

SacPox [2] = target: T1, SacPox; assay: p-nitrophenolate release, […] nm; type: biochemical; details: 50 mM HEPES pH 8, 150 mM NaCl, 0.2 mM CoCl2, 25°C, cobalt cofactor; for Km: no SDS
CCCC1CCC(=O)O1 = assay: purified protein; type: biochemical, Sulfolobus acidocaldarius; details: 2.5 mM Bicine pH 8.3, 150 mM NaCl, 0.2 mM CoCl2, 0.5% DMSO, 25°C, cobalt cofactor
CCCCC1CCCC(=O)O1 = assay: purified protein; type: biochemical, Sulfolobus acidocaldarius; details: 2.5 mM Bicine pH 8.3, 150 mM NaCl, 0.2 mM CoCl2, 0.5% DMSO, 25°C, cobalt cofactor
[3] = test system: CCCCCC(=O)CC(=O)N[C@H]1CCOC1=O; assay: purified protein; type: biochemical, Sulfolobus acidocaldarius; details: 2.5 mM Bicine pH 8.3, 150 mM NaCl, 0.2 mM CoCl2, 0.5% DMSO, 25°C, cobalt cofactor
CCCCCC1CCC(=O)O1 = assay: purified protein; type: biochemical, Sulfolobus acidocaldarius; details: 2.5 mM Bicine pH 8.3, 150 mM NaCl, 0.2 mM CoCl2, 0.5% DMSO, 25°C, cobalt cofactor
CCCCCCC1CCCC(=O)O1 = assay: purified protein; type: biochemical, Sulfolobus acidocaldarius; details: 2.5 mM Bicine pH 8.3, 150 mM NaCl, 0.2 mM CoCl2, 0.5% DMSO, 25°C, cobalt cofactor
[4] = test system: CCCCCCCC(=O)CC(=O)N[C@H]1CCOC1=O; assay: purified protein; type: biochemical, Sulfolobus acidocaldarius; details: 2.5 mM Bicine pH 8.3, 150 mM NaCl, 0.2 mM CoCl2, 0.5% DMSO, 25°C, cobalt cofactor
CCCCCCCC(=O)NC1CCOC1=O = assay: purified protein; type: biochemical, Sulfolobus acidocaldarius; details: 2.5 mM Bicine pH 8.3, 150 mM NaCl, 0.2 mM CoCl2, 0.5% DMSO, 25°C, cobalt cofactor
CCCCCCCC1CCCC(=O)O1 = assay: purified protein; type: biochemical, Sulfolobus acidocaldarius; details: 2.5 mM Bicine pH 8.3, 150 mM NaCl, 0.2 mM CoCl2, 0.5% DMSO, 25°C, cobalt cofactor
CCCCCCCCC1CCC(=O)O1 = assay: purified protein; type: biochemical, Sulfolobus acidocaldarius; details: 2.5 mM Bicine pH 8.3, 150 mM NaCl, 0.2 mM CoCl2, 0.5% DMSO, 25°C, cobalt cofactor
SacPox [5] = target: T1, SacPox; assay: phenyl acetate hydrolysis, […] nm; type: biochemical; details: 50 mM HEPES pH 8, 150 mM NaCl, 0.2 mM CoCl2, 25°C; cobalt cofactor

## O=C1CCCCCO1 [ϵ caprolactone]
SacPox [1]
  K M (μM): 1 031 ± 83 μM

## CC(=O)Oc1ccc([N+](=O)[O-])cc1 [pNP-acetate]
SacPox [2]
  K M (μM): 2 107 ± 313 μM

## SacPox (Sulfolobus acidocaldarius DSM 639)
CCCC1CCC(=O)O1
  Km: 388 ± 62 µM
  kcat: 10.2 ± 0.5 s⁻¹
  kcat/Km: 26400 ± 4400 M⁻¹ s⁻¹
CCCCC1CCCC(=O)O1
  Km: 348 ± 53 µM
  kcat: 4.55 ± 0.21 s⁻¹
  kcat/Km: 13100 ± 2100 M⁻¹ s⁻¹
[3]
  Km: 836 ± 178 µM
  kcat: 0.89 ± 0.07 s⁻¹
  kcat/Km: 1070 ± 250 M⁻¹ s⁻¹
CCCCCC1CCC(=O)O1
  Km: 109 ± 19 µM
  kcat: 2.64 ± 0.07 s⁻¹
  kcat/Km: 24400 ± 4400 M⁻¹ s⁻¹
CCCCCCC1CCCC(=O)O1
  Km: 168 ± 37 µM
  kcat: 1.05 ± 0.05 s⁻¹
  kcat/Km: 6220 ± 1400 M⁻¹ s⁻¹
[4]
  Km: 213 ± 33 µM
  kcat: 1.03 ± 0.04 s⁻¹
  kcat/Km: 4880 ± 770 M⁻¹ s⁻¹
CCCCCCCC(=O)NC1CCOC1=O
  Km: 178 ± 26 µM
  kcat: 0.94 ± 0.02 s⁻¹
  kcat/Km: 5280 ± 770 M⁻¹ s⁻¹
CCCCCCCC1CCCC(=O)O1
  Km: 185 ± 27 µM
  kcat: 3.34 ± 0.07 s⁻¹
  kcat/Km: 18100 ± 2700 M⁻¹ s⁻¹
CCCCCCCCC1CCC(=O)O1
  Km: 242 ± 60 µM
  kcat: 0.53 ± 0.03 s⁻¹
  kcat/Km: 2210 ± 570 M⁻¹ s⁻¹

## CCOP(=O)(OCC)Oc1ccc([N+](=O)[O-])cc1 [Paraoxon]
SacPox [2]
  Km: 434 ± 54 µM

## COP(=O)(OC)Oc1ccc([N+](=O)[O-])cc1 [Methyl Paraoxon]
SacPox [2]
  Km: 278 ± 40 µM

## CC(=O)Oc1ccccc1 [Phenyl-acetate]
SacPox [5]
  K M (μM): 8 181 ± 1750 μM
